Source: patent publication US20100287629A1

Experiments:
[1] = molecular target: recombinant soluble human CD4 (human) (UniProt P01730); assay: SPR sensor chip; sCD4 amine-coupled, mAb flowed
[2] = molecular target: recombinant soluble human CD4 (human) (UniProt P01730); assay: BIAcore; rCD4 coupled to chip, mAb flowed

Q: For “Leu3a, mouse anti-human CD4 monoclonal antibody”, which Ka [1] is on record?
A: Its Ka is 3.7e+10 M⁻¹.

Q: And the koff [1]?
A: The koff was 4.2e-06 s⁻¹.

Q: And the kon [1]?
A: Its kon is 150000 M⁻¹ s⁻¹.

Q: What about the Ka [2] of the same substance?
A: The Ka was 3.7e+10 M⁻¹.

Q: What about the koff [2] of the same substance?
A: The koff was 4.2e-06 s⁻¹.

Q: What about the kon [2] of the same substance?
A: The kon was 150000 M⁻¹ s⁻¹.
